B1: Flag-tagged soluble AIM II protein (sAIM II), amino acids 74-240 of AIM II (ligand)
chain: DGPAGSWEQLIQERRSHEVNPAAHLTGANSSLTGSGGPLLWETQLGLAFLRGLSYHDGALVVTKAGYYYIYSKVQLGGVGCPLGLASTITHGLYKRTPRYPEELELLVSQQSPCGRATSSSRVWWDSSFLGGVVHLEAGEEVVVRVLDERLVRLRDGTRSYFGAFMV
notes: also called sLIGHT; AIM II-Flag; not shown: N-terminal FLAG peptide tag from vector pFLAG.CMV-1 (behind the preprotrypsin signal peptide)
B2: natural processed form of AIM II purified from conditioned media of MCA-38 cells transfected with full length AIM II cDNA (residues 83-240) (ligand)
chain: LIQERRSHEVNPAAHLTGANSSLTGSGGPLLWETQLGLAFLRGLSYHDGALVVTKAGYYYIYSKVQLGGVGCPLGLASTITHGLYKRTPRYPEELELLVSQQSPCGRATSSSRVWWDSSFLGGVVHLEAGEEVVVRVLDERLVRLRDGTRSYFGAFMV
notes: apparent mass about 21 kDa, said to be consistent with glycosylation; also called MCA-38 AIM II; AIM II (aa 83-240)
B3: lymphotoxin beta receptor (LTβR)-Fc fusion protein (Fc fusion, human, UniProt P36941 31-227, looked up)
chain: QAVPPYASENQTCRDQEKEYYEPQHRICCSRCPPGTYVSAKCSRIRDTVCATCAENSYNEHWNYLTICQLCRPCDPVMGLEEIAPCTSKRKTQCRCQPGMFCAAWALECTHCELLSDCPPGTEAELKDEVGKGNNHCVPCKAGHFQNTSSPSARCQPHTRCENQGLVEAAPGTAQSDTTCKNPLEPLPPEMSGTMLM
notes: extracellular domain; also called sLTβR-Fc; lymphotoxin-β receptor-Fc fusion protein; not shown: IgG1 Fc from vector pUC19-IgG1-Fc
B4: full-length AIM II (LIGHT) expressed on the cell surface (ligand)
chain: MEESVVRPSVFVVDGQTDIPFTRLGRSHRRQSCSVARVGLGLLLLLMGAGLAVQGWFLLQLHWRLGEMVTRLPDGPAGSWEQLIQERRSHEVNPAAHLTGANSSLTGSGGPLLWETQLGLAFLRGLSYHDGALVVTKAGYYYIYSKVQLGGVGCPLGLASTITHGLYKRTPRYPEELELLVSQQSPCGRATSSSRVWWDSSFLGGVVHLEAGEEVVVRVLDERLVRLRDGTRSYFGAFMV
B5: HVEM/TR2-Fc fusion protein (Fc fusion, UniProt Q92956 39-202, looked up)
chain: LPSCKEDEYPVGSECCPKCSPGYRVKEACGELTGTVCEPCPPGTYIAHLNGLSKCLQCQMCDPAMGLRASRNCSRTENAVCGCSPGHFCIVQDGDHCAACRAYATSSPGQRVQKGGTESQDTLCQNCPPGTFSPNGTLEECQHQTKCSWLVTKAGAGTSSSHWV
notes: not shown: Fc portion; detected with anti-human IgG

Assay [1] concerns the target T1, TR6-(His), recombinant TR6 protein with hexa-histidine at the C-terminus (human, UniProt O95407 30-300).
T1 construct: also called DcR3; TR6 (DcR3)
T1 sequence: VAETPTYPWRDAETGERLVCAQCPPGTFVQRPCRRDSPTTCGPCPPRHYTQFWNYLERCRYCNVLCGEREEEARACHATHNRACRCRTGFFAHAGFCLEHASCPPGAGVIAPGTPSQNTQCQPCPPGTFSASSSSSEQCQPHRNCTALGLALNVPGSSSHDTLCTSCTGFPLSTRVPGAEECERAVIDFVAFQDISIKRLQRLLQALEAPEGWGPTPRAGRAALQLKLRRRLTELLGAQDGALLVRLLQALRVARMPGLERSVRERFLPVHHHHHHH
Kind of assay: summary of the experiments of Example 13.

Assay [2] deals with T2, DR4 (UniProt O00220 24-239, limits assumed).
T2 construct: also called TRAIL-R1; APO-2
T2 sequence (looked up): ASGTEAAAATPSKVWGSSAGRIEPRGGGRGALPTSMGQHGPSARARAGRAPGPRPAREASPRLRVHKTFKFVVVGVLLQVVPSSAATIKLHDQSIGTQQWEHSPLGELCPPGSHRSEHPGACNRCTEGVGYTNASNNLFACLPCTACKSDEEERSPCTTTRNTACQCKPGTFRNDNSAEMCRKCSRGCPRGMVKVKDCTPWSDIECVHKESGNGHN
Kind of assay: in vitro binding assay, not described.

For assay [3], the target named is T3, DR5 (UniProt O14763 56-210, limits assumed).
T3 construct: also called TRAIL-R2
Briefly: in vitro binding assay, not described.

For assay [4], the target named is B5. Briefly: FACS competition, TR2-Fc at 10 µg/ml preincubated with sAIM II. How it is done: Cells were collected by trypsinization or aspiration, and centrifuged at 1500–2000 rpm for 5 min. The cell pellets were resuspended and washed in 5 ml ice-cold PBS twice. And then, the cells were incubated with Flag-tagged AIM II protein or Abs at 10 μg/ml in the binding buffer (HBSS containing 10% BSA, 20 mM HEPES, pH 7.2, 0.02% NaN₃, and 25 μg/ml normal rat Ig) for 30 min at 4° C. Cells were then washed and stained with phycoerythrin (PE) conjugated to goat anti-mouse IgG at 20 μg/ml as described. To compete for cell surface binding, soluble LTβR-Fc fusion protein, TR2-Fc at 10 μg/ml was preincubated with AIM II for 30 min before adding to cells. Fluorescence was analyzed by a FACscan flow cytometer (Becton Dickinson, Mountain View, Calif.).

Assay [5] concerns the target T4, DR3 (UniProt Q93038 25-199, limits assumed).
T4 construct: also called TRAMP; APO-3
T4 sequence (looked up): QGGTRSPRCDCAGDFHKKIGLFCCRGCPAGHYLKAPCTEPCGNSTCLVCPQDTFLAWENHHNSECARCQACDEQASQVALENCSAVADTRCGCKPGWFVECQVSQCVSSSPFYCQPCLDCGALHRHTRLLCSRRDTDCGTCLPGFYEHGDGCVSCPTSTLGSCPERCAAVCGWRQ
Briefly: 'in a similar assay'; format not described.

In assay [6] the target is T5, Fas (UniProt P25445 26-173, limits assumed).
T5 construct: also called CD95; APO-1
T5 sequence (looked up): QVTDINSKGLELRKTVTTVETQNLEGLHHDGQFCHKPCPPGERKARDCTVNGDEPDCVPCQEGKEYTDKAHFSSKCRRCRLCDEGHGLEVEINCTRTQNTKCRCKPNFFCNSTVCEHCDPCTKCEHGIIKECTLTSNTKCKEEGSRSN
Briefly: 'in a similar assay'; format not described.

The target in assay [7] is T6, TNFRI (UniProt P19438 30-211, limits assumed).
T6 construct: also called TNFR1
T6 sequence (looked up): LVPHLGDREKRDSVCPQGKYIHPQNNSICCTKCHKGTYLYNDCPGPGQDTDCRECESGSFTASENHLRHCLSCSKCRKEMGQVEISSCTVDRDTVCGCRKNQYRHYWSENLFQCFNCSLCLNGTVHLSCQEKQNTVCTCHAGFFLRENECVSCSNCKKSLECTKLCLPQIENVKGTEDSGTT
Briefly: 'in a similar assay'; format not described.

Assay [8] deals with B3. Kind of assay: BIAcore, LTβR-Fc immobilized by amine coupling, CHO conditioned serum-free media. How it is done: (§1) CHO cells were transfected with either an AIM II-Flag tag expression vector or an BAP-Flag (negative control). Three days after transfection, AIM II expression was determined using the BIAcore instrument (BIAcore, Inc.) which permits real-time measurements of protein binding events to immobilized AIM II receptor, lymphotoxin-β receptor (BIAcore sensorgram detects binding by changes in refractive index at the surface of the flow cell). A lymphotoxin-β receptor-Fc fusion protein was covalently immobilized to the BIAcore flow cell via amine groups using N-ethyl-N'-(dimethylaminopropyl)carbodiimide/N-hydroxysuccinimide chemistry. Various dilutions of AIM II-Flag and the negative control (BAP-Flag) conditioned serum-free media were applied to the lymphotoxin-β-receptor-derivatized flow cell at 5 µl/min for a total volume of 50 µl. The amount of bound protein was determined after washing the flow cell with HBS buffer (10 mM HEPES, pH 7.4, 150 mM NaCl, 3.4 mM EDTA, 0.005% Surfactant P20). The flow cell surface was regenerated by displacing bound protein by washing with 20 µl of 10 mM HCl.

Assay [9] addresses T7, LTβR on the surface of MDA-MB-231 and HT-29 cells (human, UniProt P36941 31-435).
T7 construct: whole, on cells; The cells carry both LTβR and TR2; also called lymphotoxin β receptor
Briefly: summary of the FACS and cytotoxicity experiments. The method, then:
(§2) FIGS. 8A–8M. Cell surface expression of the LTβR or TR2 by the FACS analyses using LTβR (FIGS. 8A–8D) or TR2 (FIGS. 8E–8H) mAb. […] FACS binding analyses of soluble AIM II protein alone (FIG. 8I) and blocking of a soluble AIM II protein binding by preincubation with the LTβR-Fc fusion protein (FIG. 8J) or TR2-Fc fusion protein (FIG. 8K) in MDA-MB-231 cells. FIG. 8L summarizes the surface expression of LTβR and TR2 in various cell lines. Effects of LTβR-Fc or TR2-Fc fusion protein to block the sAIM II-mediated cytotoxicity in HT-29 cells (FIG. 8M). […] Cells were incubated for five days and the viability of cells was determined by XTT assays.
(§3) A soluble tetrazolium/formazan (XTT) assay for cell growth in a 96-well plate was performed. Cells (2,000–4,000 cells/well) were grown in IMEM medium with 10% FBS or 1% FBS. After four to five days culture, XTT (1.0 mg/ml plus PMS at 1.53 mg/ml) was added to each well and incubated for four hours at 37° C. Absorbance at 450 nm was measured with the Dynatech Model MR700.
(§4) Cells were collected by trypsinization or aspiration, and centrifuged at 1500–2000 rpm for 5 min. The cell pellets were resuspended and washed in 5 ml ice-cold PBS twice. […] Fluorescence was analyzed by a FACscan flow cytometer (Becton Dickinson, Mountain View, Calif.).

For assay [10], the target named is T8, TR2 on the surface of MDA-MB-231 and HT-29 cells and of T cells (human, UniProt Q92956 39-283).
T8 construct: whole, on cells; The tumour cells carry both LTβR and TR2; also called HVEM; ATAR
T8 sequence (looked up): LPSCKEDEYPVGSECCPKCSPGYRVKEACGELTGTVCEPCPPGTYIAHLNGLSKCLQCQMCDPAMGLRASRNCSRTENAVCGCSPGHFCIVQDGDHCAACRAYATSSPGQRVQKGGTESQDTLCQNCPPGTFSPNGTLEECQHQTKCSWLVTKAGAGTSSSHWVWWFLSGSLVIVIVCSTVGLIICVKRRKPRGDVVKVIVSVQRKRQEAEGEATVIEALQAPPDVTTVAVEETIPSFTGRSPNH
Briefly: summary of the FACS and cytotoxicity experiments. The method, then:
as §2, §3, §4

Assay [11] deals with B3. Kind of assay: LTβR-Fc affinity column, eluate tested on LTβR BIAcore chip; band of about 21 kDa specifically bound to the column. How it is done:
Conditioned media from the stable transfectants, CHO11 or MCA-38 cells, were filtered, centrifuged at 10,000×g and then passed over an MCIF-Fc affinity column (control column) followed by the LTβR-Fc affinity column (0.2 mL bed volume). The columns were washed with several bed column volumes HEPES buffered saline containing 0.005% Surfactant P-20. Bound protein was eluted with 10 mM HCl (3×0.5 ml fractions) and immediately neutralized with TRIS buffer. The fractions eluted from the LTβR column retained binding to LTβR BIAcore chip, whereas, fractions eluted from the control MCIF-Fc column were negative for binding. The eluted fractions were dried in Spedvac then resuspended in 20 μl water. An aliquot of the eluted protein was analyzed by reducing SDS-PAGE gels and detected by silver staining. A band of approximately ~25 kDa and ~21 kDa was detected specifically bound to the LTβR column from CHO-11 and MCA-38 cell lines. The remaining eluted material was subject to SDS-PAGE and blotted onto PVDF membrane for N-terminal sequence analysis.
In general terms: Surface plasmon resonance follows binding to a sensor surface in real time, without labels.

Assay [12] concerns the target T9, BAP-Flag (negative control) (UniProt P00634 22-471 = phosphatase).
T9 construct: Tested as conditioned serum-free medium of transfected CHO cells
Briefly: BIAcore, LTβR-Fc immobilized, conditioned serum-free media of CHO cells. The method, then: as §1

In assay [13] the target is B4. Kind of assay: flow cytometry on AIM II (LIGHT)-transfected HEK 293 EBNA cells, FITC anti-human IgG. The method, then: (§5) After selection with Hygromycin B, cells were harvested with 1 mM EDTA in PBS and incubated with TR6-(His), HVEM/TR2-Fc, or LTβR-Fc for 20 minutes on ice. For detecting Fc-fusion protein, cells were stained with FITC-conjugated goat anti-human IgG. To detect TR6 binding, cells were stained with anti-poly(His)_6 and FITC conjugated goat anti-mouse IgG consecutively. The cells were analyzed by FACScan (Becton Dickinson).
(§6) These bindings indicate that TR6 can bind to both soluble and membrane-bound forms of AIM II (LIGHT).

The target of assay [14] is T1, TR6-(His), recombinant TR6 protein with …. Briefly: flow cytometry on AIM II (LIGHT)-transfected HEK 293 EBNA cells, anti-poly(His)6 and FITC anti-mouse IgG. The method, then:
as §5, §6
A general note: Flow cytometry measures light scatter and fluorescence of single cells or particles in a stream.

T9 sequence (P00634 22-471): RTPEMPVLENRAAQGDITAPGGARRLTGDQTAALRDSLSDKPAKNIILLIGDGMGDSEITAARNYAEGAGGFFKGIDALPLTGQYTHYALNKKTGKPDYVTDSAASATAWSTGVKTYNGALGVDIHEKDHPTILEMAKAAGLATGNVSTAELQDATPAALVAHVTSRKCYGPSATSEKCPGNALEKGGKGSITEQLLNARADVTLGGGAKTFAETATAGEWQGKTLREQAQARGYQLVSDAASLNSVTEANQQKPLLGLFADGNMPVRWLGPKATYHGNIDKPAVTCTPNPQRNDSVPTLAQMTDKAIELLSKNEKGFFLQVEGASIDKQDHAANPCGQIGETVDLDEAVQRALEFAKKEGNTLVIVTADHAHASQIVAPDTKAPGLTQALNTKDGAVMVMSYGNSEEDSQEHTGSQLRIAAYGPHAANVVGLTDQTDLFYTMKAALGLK

Regarding B1, the binding result in assay [1] is reported as “binds”; in [2] it was “no binding”; in assay [3], “no binding”; in assay [4], “binds”; in assay [5] it was “no binding”; in [6], “no binding”. In addition, the binding result in assay [7] is “no binding”; in [8], “binds”; in [9], “binds”; in assay [10], “binds”.

With B2, the binding result in [11] is recorded as “binds”.

For the molecule B3, the binding result in assay [12] is “no binding”; in [13] it was “binds”.

B4: the binding result in assay [14] is on record as “binds”.

B5: the binding result in [13] was “binds”.

The values above are taken from patent US6635743.
